Assay results as given in patent US20250223364A1 (DREN BIO, published 2025).

Assays:
Human monocytes (human) = Human monocytes (human) (UniProt Q9BXN2); assay: cell binding; human monocytes
[1] = biological target: HEK-Blue hDectin-1a cells (UniProt Q9BXN2); assay: cell binding; HEK-Blue hDectin-1a cells
[2] = biological target: HEK-Blue hDectin-1b cells (UniProt Q9BXN2); assay: cell binding; HEK-Blue hDectin-1b cells
HEK293F hDectin-1a FL = HEK293F hDectin-1a FL (UniProt Q9BXN2); assay: cell binding; HEK293F hDectin-1a FL cells
[3] = biological target: cynomolgus monkey Dectin-1 (cynomolgus monkey); assay: flow cytometry on cynomolgus monkey monocytes
[4] = biological target: T1, Dectin-1-expressing HEK cells (human, UniProt Q9BXN2 1-247); assay: flow cytometry; HEK cells
T1 chain: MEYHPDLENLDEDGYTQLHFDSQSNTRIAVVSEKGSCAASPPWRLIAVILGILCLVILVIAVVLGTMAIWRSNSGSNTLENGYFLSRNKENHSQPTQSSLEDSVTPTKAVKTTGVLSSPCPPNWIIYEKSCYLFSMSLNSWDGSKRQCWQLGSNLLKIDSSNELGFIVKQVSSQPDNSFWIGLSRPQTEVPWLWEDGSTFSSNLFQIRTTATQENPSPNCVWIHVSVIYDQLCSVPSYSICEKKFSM

[5] = biological target: T2, cynomolgus monkey Dectin-1 (cynomolgus monkey, UniProt A0A2K5UXY6 35-281); assay: flow cytometry on cynomolgus monkey monocytes
T2 construct: whole, on cells; also called cynomolgus Dectin-1; Dectin-1 on cynomolgus monkey monocytes
T2 sequence: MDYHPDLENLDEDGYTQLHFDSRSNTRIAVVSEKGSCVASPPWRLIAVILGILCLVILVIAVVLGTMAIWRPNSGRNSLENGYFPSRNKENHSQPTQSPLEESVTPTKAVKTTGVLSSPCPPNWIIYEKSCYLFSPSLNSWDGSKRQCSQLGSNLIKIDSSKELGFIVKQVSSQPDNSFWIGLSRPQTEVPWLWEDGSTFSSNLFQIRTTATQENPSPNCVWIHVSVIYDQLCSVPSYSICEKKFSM

[6] = biological target: T3, human Dectin-1 (isoform not given) (human, UniProt Q9BXN2 1-247); assay: flow cytometry on HEK 293 cells stably overexpressing human Dectin-1
T3 construct: whole, on cells; also called hDectin-1; Dectin-1 on human monocytes
T3 sequence (looked up): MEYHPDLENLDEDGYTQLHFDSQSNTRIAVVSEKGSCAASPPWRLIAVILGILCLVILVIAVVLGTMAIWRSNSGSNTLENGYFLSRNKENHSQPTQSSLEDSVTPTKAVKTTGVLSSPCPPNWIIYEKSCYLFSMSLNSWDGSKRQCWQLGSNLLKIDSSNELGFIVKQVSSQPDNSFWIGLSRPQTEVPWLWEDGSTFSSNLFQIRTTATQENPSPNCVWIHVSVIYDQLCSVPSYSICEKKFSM

Molecule: 15E2
- EC50 (Human monocytes (human)): 0.6 nM
- EC50 [1]: 1.2 nM
- EC50 [2]: 9.3 nM
- EC50 (HEK293F hDectin-1a FL): 1.4 nM

Molecule: 15E2 commercial anti-Dectin-1 antibody
- EC50 [3]: 14 nM

Molecule: 259931 commercial anti-Dectin-1 antibody
- EC50 [3]: 16 nM

Molecule: GE2
- EC50 (Human monocytes (human)): 1.4 nM
- EC50 [1]: 1.9 nM
- EC50 [2]: 12 nM
- EC50 (HEK293F hDectin-1a FL): 2.4 nM

B1: 2m24/RSV (bispecific antibody)
chain 1: QVQLVQSGAEVKKPGASVKVSCKSSGYTFTDYYIHWVRQAPGQGLEWMGWINPNSGDTNYAQKFQGRITMTRDTSISTAYLELSRLRSDDTAVFYCARNSGSYSFGYWGQGTLVTVSS
chain 2: DIQMTQSPSSVSASVGDRVTITCRASQGISSWLAWYQQKPGKAPKLLIFGASSLQSGVPSRFSGSGSGTDFTLTVSSLQPEDFATYYCQQAYSFPFTFGPGTKVDIE
chain 3: QVTLRESGPALVKPTQTLTLTCTFSGFSLSTSGMSVGWIRQPPGKALEWLADIWWDDKKDYNPSLKSRLTISKDTSANQVVLKVTNMDPADTATYYCARSMITNWYFDVWGAGTTVTVSS
chain 4: DIQMTQSPSTLSASVGDRVTITCKCQLSVGYMHWYQQKPGKAPKLLIYDTSKLASGVPSRFSGSGSGTAFTLTISSLQPDDFATYYCFQGSGYPFTFGGGTKLEIK
- EC50 [4]: 1.6 nM

B2: anti-human Dectin-1 antibody clone 2M24 (mIgG1) (antibody, V domains shown)
VH: QVQLVQSGAEVKKPGASVKVSCKSSGYTFTDYYIHWVRQAPGQGLEWMGWINPNSGDTNYAQKFQGRITMTRDTSISTAYLELSRLRSDDTAVFYCARNSGSYSFGYWGQGTLVTVSS
VL: DIQMTQSPSSVSASVGDRVTITCRASQGISSWLAWYQQKPGKAPKLLIFGASSLQSGVPSRFSGSGSGTDFTLTVSSLQPEDFATYYCQQAYSFPFTFGPGTKVDIE
- EC50 [5]: 0.3 nM

B3: Fab 2M24-mSA fusion protein (Fab, V domains shown)
VH: QVQLVQSGAEVKKPGASVKVSCKSSGYTFTDYYIHWVRQAPGQGLEWMGWINPNSGDTNYAQKFQGRITMTRDTSISTAYLELSRLRSDDTAVFYCARNSGSYSFGYWGQGTLVTVSS
VL: DIQMTQSPSSVSASVGDRVTITCRASQGISSWLAWYQQKPGKAPKLLIFGASSLQSGVPSRFSGSGSGTDFTLTVSSLQPEDFATYYCQQAYSFPFTFGPGTKVDIE
- EC50 [6]: 1.45 nM
